In US20210380703A1 (RIGEL PHARMACEUTICALS, published 2021) one finds optical density data, which are given here for 18 molecules.

The target of experiment [1] is T1, biotinylated goat anti-human kappa light chain.
T1 construct: positive control of the ELISA
Briefly: ELISA, positive control. Summed up:
(§1)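 mAb binding by ELISA; antigens: hu ACVR2A, mu ACVR2A; pos ctrl biotinylated goat anti-hu kappa LC; neg ctrl hu Fc.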
Background: An ELISA detects its analyte on a solid surface through an enzyme-linked reagent.

The target in experiment [2] is mouse ACVR2A (mouse, UniProt P27038 20-135, limits assumed). Briefly: ELISA. A digest of the protocol:
as §1

In experiment [3] the target is T2, human ACVR2A (human, UniProt P27037 20-135, limits assumed).
T2 construct: also called activin receptor, type II A
T2 sequence (P27037 20-135 limits assumed): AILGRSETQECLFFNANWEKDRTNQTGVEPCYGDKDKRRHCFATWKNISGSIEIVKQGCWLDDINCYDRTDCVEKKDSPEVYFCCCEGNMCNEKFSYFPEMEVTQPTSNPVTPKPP
The experiment is described as follows: ELISA. A digest of the protocol:
as §1
Note: test concentration or dose not given here.

mouse ACVR2A, sequence (P27038 20-135 limits assumed): as the sequence (P27037 20-135 limits assumed) above, with K20R, V73I counted along it

B1: 365_C05 (antibody, V domains shown)
VH: EVQLLESGGGLVQPGGSLRLSCAASGFTFSDYSMNWVRQAPGKGLEWVSGINYNGGYKGYADSVKGRFTISRDNSKNTLYLQMNSLRAEDTAVYYCARGANWHDTHLDYWGQGTLVTVSS
VL: DIQMTQSPSSLSASVGDRVTITCRASQSILTYLNWYQQKPGKAPKLLIYAATSRHSGVPSRFSGSGSGTDFTLTISSLQPEDFATYYCQQSYNSPLTFGGGTKVEIK
notes: Group III
B1: the optical density was 3.53 OD in experiment [1], 2.81 OD in experiment [2] and 2.56 OD in experiment [3].

B2: 365_D03 (antibody, V domains shown)
VH: EVQLLESGGGLVQPGGSLRLSCAASGFTFDDYSMHWVRQAPGKGLEWVASINYNGGYKSYADSVKGRFTISRDNSKNTLYLQMNSLRAEDTAVYYCARAATWHDTHLDYWGQGTLVTVSS
VL: DIQMTQSPSSLSASVGDRVTITCRASQSIVSYLNWYQQKPGKAPKLVIYAATSRASGVPSRFSGSGSGTDFTLTISSLQPEDFATYYCQQSYDSPLTFGGGTKVEIK
notes: Group II
Turning to B2, the optical density amounted to 3.53 OD in experiment [1], 2.48 OD in experiment [2] and 2.35 OD in experiment [3].

B3: 365_C06 (antibody, V domains shown)
VH: EVQLLESGGGLVQPGGSLRLSCAASGFTFSDYGMHWVRQAPGKGLEWVSGINYNGGYTSYADSVKGRFTISRDNSKNTLYLQMNSLRAEDTAVYYCARAANWHDTALDYWGQGTLVTVSS
VL: DIQMTQSPSSLSASVGDRVTITCRASQSISTYVNWYQQKPGKAPKLLIYAVTSLASGVPSRFSGSGSGTDFTLTISSLQPEDFATYYCQQSYDNPLTFGGGTKVEIK
notes: Group I
As for B3, the optical density amounted to 3.45 OD in experiment [1], 2.23 OD in experiment [2] and 1.78 OD in experiment [3].

B4: 365_G07 (antibody, V domains shown)
VH: EVQLLESGGGLVQPGGSLRLSCAASGFTFDSYGMHWVRQAPGKGLEWVSSINYNGGYTSYADSVKGRFTISRDNSKNTLYLQMNSLRAEDTAVYYCARAANWHDTALDYWGQGTLVTVSS
VL: DIQMTQSPSSLSASVGDRVTITCRASQSIVSYLNWYQQKPGKAPKLLIYAATSRASGVPSRFSGSGSGTDFTLTISSLQPEDFATYYCQQSYDNPLTFGGGTKVEIK
notes: Group I
B4: the optical density in experiment [1] was 3.47 OD; in experiment [2] it was 2.6 OD; in experiment [3], 2.42 OD.

B5: 365_F03 (antibody, V domains shown)
VH: EVQLLESGGGLVQPGGSLRLSCAASGFTFDSYSMNWVRQAPGKGLEWVSSINYNGGYTSYADSVKGRFTISRDNSKNTLYLQMNSLRAEDTAVYYCARGANWHDTHLDYWGQGTLVTVSS
VL: DIQMTQSPSSLSASVGDRVTITCRASQSILSYLNWYQQKPGKAPKLLIYAATSRASGVPSRFSGSGSGTDFTLTISSLQPEDFATYYCQQSYDNPLTFGGGTKVEIK
notes: Group III
In the case of B5, the results for the optical density in experiment [1], in experiment [2] and in experiment [3] were 3.57 OD, 2.99 OD and 2.63 OD, respectively.

B6: 365_G08 (antibody, V domains shown)
VH: EVQLLESGGGLVQPGGSLRLSCAASGFTFSSYGMHWVRQAPGKGLEWVASINYNGGYTSYADSVKGRFTISRDNSKNTLYLQMNSLRAEDTAVYYCARAATWHDTHLDYWGQGTLVTVSS
VL: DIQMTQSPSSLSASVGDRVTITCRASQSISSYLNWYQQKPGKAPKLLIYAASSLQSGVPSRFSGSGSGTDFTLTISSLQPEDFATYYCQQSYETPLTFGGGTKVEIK
notes: Group II
Turning to B6, the figures for the optical density in experiment [1], in experiment [2] and in experiment [3] were 3.5 OD, 2.58 OD and 2.53 OD, respectively.

B7: 365_E04 (antibody, V domains shown)
VH: EVQLLESGGGLVQPGGSLRLSCAASGFTFDSYGMHWVRQAPGKGLEWVASINYNGGYKSYADSVKGRFTISRDNSKNTLYLQMNSLRAEDTAVYYCARAANWHDTALDYWGQGTLVTVSS
VL: DIQMTQSPSSLSASVGDRVTITCRASQSILSYVNWYQQKPGKAPKLLIYAATSLASGVPSRFSGSGSGTDFTLTISSLQPEDFATYYCQQSYELPLTFGGGTKVEIK
notes: Group I
B7: the figures for the optical density in experiment [1], in experiment [2] and in experiment [3] were 3.54 OD, 2.4 OD and 2.34 OD, respectively.

B8: 365_G05 (antibody, V domains shown)
VH: EVQLLESGGGLVQPGGSLRLSCAASGFTFSSYGMNWVRQAPGKGLEWVSGINYNGGYKGYADSVKGRFTISRDNSKNTLYLQMNSLRAEDTAVYYCARGANWHDTALDYWGQGTLVTVSS
VL: DIQMTQSPSSLSASVGDRVTITCRASQSILSYLNWYQQKPGKAPKLVIYAATSLASGVPSRFSGSGSGTDFTLTISSLQPEDFATYYCQQSYENPLTFGGGTKVEIK
notes: Group III
As for B8, the optical density in experiment [1] amounted to 3.35 OD; in experiment [2], 2.54 OD; in experiment [3] it was 2.44 OD.

B9: 365_D08 (antibody, V domains shown)
VH: EVQLLESGGGLVQPGGSLRLSCAASGFTFDSYSMHWVRQAPGKGLEWVSSINYNGGYTSYADSVKGRFTISRDNSKNTLYLQMNSLRAEDTAVYYCARAATWHDTHLDYWGQGTLVTVSS
VL: DIQMTQSPSSLSASVGDRVTITCRASQSIITYVNWYQQKPGKAPKLLIYAATSRASGVPSRFSGSGSGTDFTLTISSLQPEDFATYYCQQSYDTPLTFGGGTKVEIK
notes: Group II
As to B9, the optical density amounted to 3.61 OD in experiment [1], 2.35 OD in experiment [2] and 2.26 OD in experiment [3].

B10: 365_G04 (antibody, V domains shown)
VH: EVQLLESGGGLVQPGGSLRLSCAASGFTFDSYSMNWVRQAPGKGLEWVAGINYNGGYTGYADSVKGRFTISRDNSKNTLYLQMNSLRAEDTAVYYCARGANWHDTHLDYWGQGTLVTVSS
VL: DIQMTQSPSSLSASVGDRVTITCRASQSIVSYVNWYQQKPGKAPKLVIYAATSLASGVPSRFSGSGSGTDFTLTISSLQPEDFATYYCQQSYDTPLTFGGGTKVEIK
notes: Group III
Turning to B10, the optical density in experiment [1] was found to be 3.29 OD; in experiment [2], 2.48 OD; in experiment [3], 2.1 OD.

B11: 365_E06 (antibody, V domains shown)
VH: EVQLLESGGGLVQPGGSLRLSCAASGFTFDSYGMNWVRQAPGKGLEWVSGINYNGGYTGYADSVKGRFTISRDNSKNTLYLQMNSLRAEDTAVYYCARAATWHDTHLDYWGQGTLVTVSS
VL: DIQMTQSPSSLSASVGDRVTITCRASQSILTYLNWYQQKPGKAPKLVIYAATSRASGVPSRFSGSGSGTDFTLTISSLQPEDFATYYCQQSYNTPLTFGGGTKVEIK
notes: Group II
Take B11: the values for the optical density in experiment [1], in experiment [2] and in experiment [3] were 3.29 OD, 2.06 OD and 1.99 OD, respectively.

B12: 365_G03 (antibody, V domains shown)
VH: EVQLLESGGGLVQPGGSLRLSCAASGFTFSSYGMNWVRQAPGKGLEWVAGINYNSGYKGYADSVKGRFTISRDNSKNTLYLQMNSLRAEDTAVYYCARGANWHDTHLDYWGQGTLVTVSS
VL: DIQMTQSPSSLSASVGDRVTITCRASQSIVSYLNWYQQKPGKAPKLLIYAATSRASGVPSRFSGSGSGTDFTLTISSLQPEDFATYYCQQSYNTPLTFGGGTKVEIK
notes: Group III
As to B12, the optical density in experiment [1] was found to be 3.54 OD; in experiment [2], 2.54 OD; in experiment [3] it was 2.24 OD.

B13: 365_F11 (antibody, V domains shown)
VH: EVQLLESGGGLVQPGGSLRLSCAASGFTFDSYSMNWVRQAPGKGLEWVSGINYNSGYKGYADSVKGRFTISRDNSKNTLYLQMNSLRAEDTAVYYCARAANWHDTHLDYWGQGTLVTVSS
VL: DIQMTQSPSSLSASVGDRVTITCRASQSIISYVNWYQQKPGKAPKLLIYAATSRASGVPSRFSGSGSGTDFTLTISSLQPEDFATYYCQQSYNTPLTFGGGTKVEIK
notes: Group I
Consider B13, for which the optical density in experiment [1] came to 3.5 OD; in experiment [2] it was 2.14 OD; in experiment [3], 2.01 OD.

B14: 365_E12 (antibody, V domains shown)
VH: EVQLLESGGGLVQPGGSLRLSCAASGFTFSDYGMNWVRQAPGKGLEWVSNINYNGGYTGYADSVKGRFTISRDNSKNTLYLQMNSLRAEDTAVYYCARGANWHDTALDYWGQGTLVTVSS
VL: DIQMTQSPSSLSASVGDRVTITCRASQSILTYLNWYQQKPGKAPKLLIYAATSRASGVPSRFSGSGSGTDFTLTISSLQPEDFATYYCQQSYETPLTFGGGTKVEIK
notes: Group III
B14: the optical density in experiment [1] amounted to 3.52 OD; in experiment [2], 3.28 OD; in experiment [3] it was 3.32 OD.

B15: 365_G06 (antibody, V domains shown)
VH: EVQLLESGGGLVQPGGSLRLSCAASGFTFDSYGMHWVRQAPGKGLEWVAGINYNGGYTSYADSVKGRFTISRDNSKNTLYLQMNSLRAEDTAVYYCARAATWHDTHLDYWGQGTLVTVSS
VL: DIQMTQSPSSLSASVGDRVTITCRASQSILSYLNWYQQKPGKAPKLLIYAATSLASGVPSRFSGSGSGTDFTLTISSLQPEDFATYYCQQSDSTPLTFGGGTKVEIK
notes: Group II
Consider B15, for which the optical density was found to be 3.34 OD in experiment [1], 2.02 OD in experiment [2] and 2.2 OD in experiment [3].

B16: 365_F10 (antibody, V domains shown)
VH: EVQLLESGGGLVQPGGSLRLSCAASGFTFDDYGMHWVRQAPGKGLEWVSGINYNGGYTSYADSVKGRFTISRDNSKNTLYLQMNSLRAEDTAVYYCARAATWHDTHLDYWGQGTLVTVSS
VL: DIQMTQSPSSLSASVGDRVTITCRASQSIVTYVNWYQQKPGKAPKLLIYAATSRASGVPSRFSGSGSGTDFTLTISSLQPEDFATYYCQQSYELPLTFGGGTKVEIK
notes: Group II
Consider B16, for which the optical density was 3.65 OD in experiment [1], 2.79 OD in experiment [2] and 2.75 OD in experiment [3].

B17: 365_F02 (antibody, V domains shown)
VH: EVQLLESGGGLVQPGGSLRLSCAASGFTFSSYSMNWVRQAPGKGLEWVSGINYNGGYKGYADSVKGRFTISRDNSKNTLYLQMNSLRAEDTAVYYCARGANWHDTHLDYWGQGTLVTVSS
VL: DIQMTQSPSSLSASVGDRVTITCRASQSILTYVNWYQQKPGKAPKLLIYAATSRHSGVPSRFSGSGSGTDFTLTISSLQPEDFATYYCQQSYDTPLTFGGGTKVEIK
notes: Group III
Consider B17, for which the optical density in experiment [1] came to 3.4 OD; in experiment [2] it was 3.05 OD; in experiment [3], 2.78 OD.

B18: 365_D04 (antibody, V domains shown)
VH: EVQLLESGGGLVQPGGSLRLSCAASGFTFSDYGMHWVRQAPGKGLEWVAGINYNGGYKSYADSVKGRFTISRDNSKNTLYLQMNSLRAEDTAVYYCARAANWHDTALDYWGQGTLVTVSS
VL: DIQMTQSPSSLSASVGDRVTITCRASQSISSYLNWYQQKPGKAPKLVIYAVTSRASGVPSRFSGSGSGTDFTLTISSLQPEDFATYYCQQSYDLPLTFGGGTKVEIK
notes: Group I
In the case of B18, the optical density in experiment [1] was 3.52 OD; in experiment [2], 2.39 OD; in experiment [3], 2.27 OD.
